This passage reports stoichiometry N results from paper PMC8367650.

For this test, the target named is IdeS FabRICATOR enzyme. Nature of the test: SEC. Background: In gel filtration, larger molecules generally elute earlier.

Consider IdeS FabRICATOR enzyme, for which the stoichiometry N (commonly a count of units in the complex or per binding partner) is 2.
